Reference: patent US20120316071A1 (published 2012)

What was measured:
[1] = biological target: T1, Recombinant Human DLL4 (R&D Systems Cat#1506-D4/CF) (human, UniProt Q9NR61 27-524); assay: ECL Multispot (MSD), DLL4 spotted, 10 nM Fab
T1 construct: Bought recombinant protein; also called delta-like protein 4; rHuman DLL4

[2] = biological target: T1, Recombinant Human DLL4 (R&D Systems …); assay: ELISA, DLL4 coated, 100 nM Fab, absorbance at 450 nm minus noise
[3] = biological target: T2, Recombinant Human DLL4 (R&D Systems Cat#1506-D4/CF) (human, UniProt Q9NR61 27-524); assay: ECL (MSD) binding assay, immobilised DLL4, repeat experiment
T2 construct: Bought recombinant protein; also called delta-like protein 4; rHuman DLL4

[4] = biological target: T3, rHuman IGF-1 sR (insulin-like growth factor-1 soluble receptor), CF (R&D Systems Cat#391-GR) (human, UniProt P08069 31-932); assay: ECL Multispot (MSD) assay, antigen spotted on plate, 10 nM Fab;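 note: purified Fab bound to antigen spots for 1 h at 20 °C, then TAG detection antibody, electrochemiluminescence compared with each well's blank, ratio of 4 or more marks a hit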
T3 construct: Bought recombinant soluble receptor

[5] = biological target: T4, rHuman P-Cadherin/Fc Chimera, CF (R&D Systems Cat#861-PC) (human, UniProt P22223 108-654); assay: as above
T4 construct: Bought recombinant protein

[6] = biological target: T2, Recombinant Human DLL4 (R&D Systems …); assay: as above
[7] = biological target: T5, rHuman ErbB2/Fc Chimera, CF (R&D Systems Cat#1129-ER) (human, UniProt P04626 23-652); assay: as above
T5 construct: Bought recombinant protein

[8] = biological target: T6, rHuman EGF R/Fc Chimera, CF (R&D Systems Cat#344-ER) (human, UniProt P00533 25-645); assay: as above
T6 construct: Bought recombinant protein

[9] = biological target: T7, rHuman HGF R/c-MET/Fc Chimera, CF (R&D Systems Cat#358-MT/CF) (human, UniProt P08581 25-932); assay: as above
T7 construct: Bought recombinant protein; also called HGF R/Fc

[10] = biological target: T2, Recombinant Human DLL4 (R&D Systems …); assay: ECL (MSD) binding assay, DLL4 signal divided by blank, repeat experiment
[11] = biological target: T8, rHuman IGF-1 sR, CF (R&D Systems Cat#391-GR) (human, UniProt P08069 31-932); assay: ECL multispot (MSD) binding assay; antigen spotted on plate, Fab in solution, Ru-labelled anti-kappa detection;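 note: purified Fab in 1% BSA TBST incubated 1 h at 20 °C with shaking, signal compared with each well's blank, signal/blank ratio of 4 or above counted as binder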
T8 construct: Bought from R&D Systems as a soluble receptor; also called insulin-like growth factor-1 soluble receptor

[12] = biological target: T9, rHuman P-Cadherin/Fc Chimera, CF (R&D Systems Cat#861-PC) (human, UniProt P22223 108-654); assay: as above
T9 construct: Bought from R&D Systems; Fc part of the bought chimera not given

[13] = biological target: T10, Recombinant Human DLL4 (R&D Systems Cat#1506-D4/CF) (human, UniProt Q9NR61 27-524); assay: as above
T10 construct: Bought from R&D Systems; also called delta-like protein 4; rHuman DLL4

[14] = biological target: T11, rHuman EGF R/Fc Chimera, CF (R&D Systems Cat#344-ER) (human, UniProt P00533 25-645); assay: as above
T11 construct: Bought from R&D Systems; also called epidermal growth factor receptor; Fc part of the bought chimera not given

[15] = biological target: T12, rHuman HGF R/c-MET/Fc Chimera, CF (R&D Systems Cat#358-MT/CF) (human, UniProt P08581 25-932); assay: as above
T12 construct: Bought from R&D Systems; also called HGF R/Fc; hepatocyte growth factor receptor; Fc part of the bought chimera not given

[16] = biological target: T13, rHuman ErbB2/Fc Chimera, CF (R&D Systems Cat#1129-ER) (human, UniProt P04626 23-652); assay: ECL (MSD) multispot binding assay, antigen spotted on plate, 20 nM Fab;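 note: purified Fab incubated 1 h at 20 °C on antigen-spotted plate, bound Fab revealed with TAG detection antibody, ECL read, antigen signal divided by same-well blank, ratio ≥4 counted as hit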
T13 construct: Bought recombinant protein; also called human epidermal growth factor 2 receptor; Fc part of the bought chimera not given

[17] = biological target: T14, rHuman EGF R/Fc Chimera, CF (R&D Systems Cat#344-ER) (human, UniProt P00533 25-645); assay: as above
T14 construct: Bought recombinant protein; also called epidermal growth factor receptor; Fc part of the bought chimera not given

[18] = biological target: T15, rHuman Notch-1/Fc Chimera, CF (R&D Systems Cat#3647-TK) (human, UniProt P46531 19-526); assay: as above
T15 construct: Bought recombinant protein; Fc part of the bought chimera not given

[19] = biological target: T16, rHuman CD44/Fc Chimera, CF (R&D Systems Cat#3660-CD) (human, UniProt P16070 21-220); assay: as above
T16 construct: Bought recombinant protein; Fc part of the bought chimera not given

[20] = biological target: T17, rHuman IGF-1 sR, (IGF-1 sR), CF (R&D Systems Cat#391-GR) (human, UniProt P08069 31-932); assay: as above
T17 construct: Bought recombinant soluble receptor; also called insulin-like growth factor-1 soluble receptor

[21] = biological target: T18, rHuman P-Cadherin/Fc Chimera, CF (R&D Systems Cat#861-PC) (human, UniProt P22223 108-654); assay: as above
T18 construct: Bought recombinant protein; Fc part of the bought chimera not given

[22] = biological target: T19, rHuman Erythropoietin R/Fc Chimera, CF (R&D Systems Cat#963-ER) (human, UniProt P19235 25-250); assay: as above
T19 construct: Bought recombinant protein; also called EPO R; EPO R/Fc; Fc part of the bought chimera not given
T19 sequence (looked up): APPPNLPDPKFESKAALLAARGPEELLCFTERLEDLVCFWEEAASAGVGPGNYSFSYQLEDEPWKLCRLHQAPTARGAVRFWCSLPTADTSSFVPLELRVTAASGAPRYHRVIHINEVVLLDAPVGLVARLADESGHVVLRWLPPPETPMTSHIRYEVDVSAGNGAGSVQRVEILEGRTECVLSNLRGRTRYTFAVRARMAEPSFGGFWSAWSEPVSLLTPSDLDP

[23] = biological target: T20, Recombinant Human DLL4 (R&D Systems Cat#1506-D4/CF) (human, UniProt Q9NR61 27-524); assay: as above
T20 construct: Bought recombinant protein; also called delta-like protein 4; rHuman DLL4

Binder	ECL Signal/Noise [1]	ELISA (Signal-Noise) [2]	ECL signal/blank ratio [16]	ECL signal/blank ratio [17]	ECL signal/blank ratio [18]	ECL signal/blank ratio [19]	ECL signal/blank ratio [20]	ECL signal/blank ratio [21]	ECL signal/blank ratio [22]	ECL signal/blank ratio [23]	further results
Fab VH1-46_IGHD6-6*01_IGHJ1*01 S102A/S103P/S104F/H111F F29A & L6_IGKJ1*01 (Fab, V domains shown, Tested as Fab (CH1 with His6/Flag tags; kappa CL), expressed in E. coli; also called APFF F29A) VH: QVQLVQSGAEVKKPGASVKVSCKASGYTATSYYMHWVRQAPGQGLEWMGIINPSGGSTSYAQKFQGRVTMTRDTSTSTVYMELSSLRSEDTAVYYCAREEYAPFSAEYFQFWGQGTLVTVSS VL: not shown	190	0.67									
Fab VH1-46_IGHD6-6*01_IGHJ1*01 S102A/S103P/S104F/H111F (APFF) & L6_IGKJ1*01 (Fab, V domains shown, Tested as Fab expressed in E. coli; Heavy chain from Plasmid A (CH1, His6 and Flag tags), kappa light chain from Plasmid C (CL); also called H:APFF & L:wt) VH: QVQLVQSGAEVKKPGASVKVSCKASGYTFTSYYMHWVRQAPGQGLEWMGIINPSGGSTSYAQKFQGRVTMTRDTSTSTVYMELSSLRSEDTAVYYCAREEYAPFSAEYFQFWGQGTLVTVSS VL: not shown											ECL signal [3]: 197000; ECL signal [4]: 397; ECL signal [5]: 347; ECL signal [6]: 78400; ECL signal [7]: 354; ECL signal [8]: 383; ECL signal [9]: 347; Signal/Noise [10]: 694
Fab VH1-46_IGHD6-6*01_IGHJ1*01 S102A/S103P/S104F/H111F F29A & L6_IGKJ1*01 (Fab, V domains shown, Tested as a Fab made in E. coli; The heavy chain vector (Plasmid A) adds CH1 with His6 and Flag tags; The light chain vector (Plasmid C) adds kappa CL; also called APFF F29A) VH: QVQLVQSGAEVKKPGASVKVSCKASGYTATSYYMHWVRQAPGQGLEWMGIINPSGGSTSYAQKFQGRVTMTRDTSTSTVYMELSSLRSEDTAVYYCAREEYAPFSAEYFQFWGQGTLVTVSS VL: not shown											ECL signal [11]: 439; ECL signal [12]: 508; ECL signal [13]: 109000; ECL signal [14]: 537; ECL signal [15]: 512
Fab VH1-46_IGHD6-6*01_IGHJ1*01 S102A/S103P/S104F/H111F S31A & L6_IGKJ1*01 (Fab, V domains shown, Tested as Fab (CH1 with His6/Flag tags; kappa CL), expressed in E. coli; also called APFF S31A) VH: QVQLVQSGAEVKKPGASVKVSCKASGYTFTAYYMHWVRQAPGQGLEWMGIINPSGGSTSYAQKFQGRVTMTRDTSTSTVYMELSSLRSEDTAVYYCAREEYAPFSAEYFQFWGQGTLVTVSS VL: not shown	453	0.47									
Fab VH1-46_IGHD6-6*01_IGHJ1*01 S102A/S103P/S104F/H111F Y33A & L6_IGKJ1*01 (Fab, V domains shown, Tested as Fab (CH1 with His6/Flag tags; kappa CL), expressed in E. coli; also called APFF Y33A) VH: QVQLVQSGAEVKKPGASVKVSCKASGYTFTSYAMHWVRQAPGQGLEWMGIINPSGGSTSYAQKFQGRVTMTRDTSTSTVYMELSSLRSEDTAVYYCAREEYAPFSAEYFQFWGQGTLVTVSS VL: not shown	136	0.09									
Fab VH1-46_IGHD6-6*01_IGHJ1*01 S102A/S103P/S104F/H111F T28A & L6_IGKJ1*01 (Fab, V domains shown, Tested as Fab (CH1 with His6/Flag tags; kappa CL), expressed in E. coli; also called APFF T28A) VH: QVQLVQSGAEVKKPGASVKVSCKASGYAFTSYYMHWVRQAPGQGLEWMGIINPSGGSTSYAQKFQGRVTMTRDTSTSTVYMELSSLRSEDTAVYYCAREEYAPFSAEYFQFWGQGTLVTVSS VL: not shown	334	0.77									
Fab VH1-46_IGHD6-6*01_IGHJ1*01 S102A/S103P/S104F/H111F T30A & L6_IGKJ1*01 (Fab, V domains shown, Tested as Fab (CH1 with His6/Flag tags; kappa CL), expressed in E. coli; also called APFF T30A) VH: QVQLVQSGAEVKKPGASVKVSCKASGYTFASYYMHWVRQAPGQGLEWMGIINPSGGSTSYAQKFQGRVTMTRDTSTSTVYMELSSLRSEDTAVYYCAREEYAPFSAEYFQFWGQGTLVTVSS VL: not shown	457	0.64									
Fab VH3-23_IGHD2-21*01>3_IGHJ6*01 H100E/S108P/Y113G/Y111I & V2-13_IGLJ2*01 (Fab, V domains shown, Fab made in E. coli: VH joined to CH1 (with His and Flag tags, plasmid A) and VL to lambda CL (plasmid E); also called EPG Y111I) VH: not shown VL: SSELTQDPAVSVALGQTVRITCQGDSLRSYYASWYQQKPGQAPVLVIYGKNNRPSGIPDRFSGSSSGNTASLTITGAQAEDEADYYCNSRDSSGNHLVVFGGGTKLTVL			1.7	1.9	1.8	1.3	1	1.9	6.9	1.5	

Further lines, with some results ahead:

ECL Signal/Noise [1]	ELISA (Signal-Noise) [2]	ECL signal/blank ratio [16]	ECL signal/blank ratio [17]	ECL signal/blank ratio [18]	ECL signal/blank ratio [19]	ECL signal/blank ratio [20]	ECL signal/blank ratio [21]	ECL signal/blank ratio [22]	ECL signal/blank ratio [23]	Binder	further results
		1.5	1.4	1.3	0.9	0.8	2.9	9.3	1.1	Fab VH3-23_IGHD2-21*01>3_IGHJ6*01 H100E/S108P/Y113G/Y111N & V2-13_IGLJ2*01 (Fab, V domains shown, Fab made in E. coli: VH joined to CH1 (with His and Flag tags, plasmid A) and VL to lambda CL (plasmid E); also called EPG Y111N) VH: not shown VL: SSELTQDPAVSVALGQTVRITCQGDSLRSYYASWYQQKPGQAPVLVIYGKNNRPSGIPDRFSGSSSGNTASLTITGAQAEDEADYYCNSRDSSGNHLVVFGGGTKLTVL	
		2.1	1.8	1.9	1.2	1.3	5	30.1	1.7	Fab VH3-23_IGHD2-21*01>3_IGHJ6*01 H100E/S108P/Y113G/Y111S & V2-13_IGLJ2*01 (Fab, V domains shown, Fab made in E. coli: VH joined to CH1 (with His and Flag tags, plasmid A) and VL to lambda CL (plasmid E); also called EPG Y111S) VH: not shown VL: SSELTQDPAVSVALGQTVRITCQGDSLRSYYASWYQQKPGQAPVLVIYGKNNRPSGIPDRFSGSSSGNTASLTITGAQAEDEADYYCNSRDSSGNHLVVFGGGTKLTVL	
		2.1	1.6	1.6	1.3	1.4		4.8	1.8	Fab VH3-23_IGHD2-21*01>3_IGHJ6*01 H100E/S108P/Y113G/Y110R & V2-13_IGLJ2*01 (Fab, V domains shown, Fab made in E. coli: VH joined to CH1 (with His and Flag tags, plasmid A) and VL to lambda CL (plasmid E); also called EPG Y110R) VH: not shown VL: SSELTQDPAVSVALGQTVRITCQGDSLRSYYASWYQQKPGQAPVLVIYGKNNRPSGIPDRFSGSSSGNTASLTITGAQAEDEADYYCNSRDSSGNHLVVFGGGTKLTVL	
				2	1.8	1.2	6.2	38.8	2.2	Fab VH3-23_IGHD2-21*01>3_IGHJ6*01 H100E/S108P/Y113G/Y111T & V2-13_IGLJ2*01 (Fab, V domains shown, Fab made in E. coli: VH joined to CH1 (with His and Flag tags, plasmid A) and VL to lambda CL (plasmid E); also called EPG Y111T) VH: not shown VL: SSELTQDPAVSVALGQTVRITCQGDSLRSYYASWYQQKPGQAPVLVIYGKNNRPSGIPDRFSGSSSGNTASLTITGAQAEDEADYYCNSRDSSGNHLVVFGGGTKLTVL	
